{
  "source": "paper PMC5384658",
  "about": "“The evolution of Sex-linked barring alleles in chickens involves both regulatory and coding changes in CDKN2A” (PLoS Genetics, 2017)",
  "key": {"[1]": {"target": "chicken MDM2_(204-298) (chicken)"}, "[2]": {"conditions": "ultracentrifugation, far-UV CD and NMR; ref [21], [22]; cited from earlier work", "excerpt": "The striking phenotypic differences associated with the B0, B1, and B2 alleles imply that the two missense mutations must affect ARF function since all three alleles share the two non-coding changes associated with Sex-linked barring (Fig 1). To learn more about the specific effects of the coding ARF mutations we performed biophysical studies on peptides corresponding to the N-terminus of wild-type and mutant chicken ARF (ARF1-14^WT, ARF1-14^V9D, ARF1-14^R10C) and purified chicken MDM2_204-298. Previously, using a combination of ultracentrifugation, far-UV circular dichroism (CD) and NMR exper ..."}},
  "data": [
    {"substance": "ARF_(1-14)^R10C peptide (N-terminus of chicken ARF with R10C, B2 allele) (from UniProt A0A8V0X483 1-14)", "values": [
      {"measurement": "p53-luc luciferase reporter activity in U2OS cells transfected with chicken ARF (coding region, pcDNA3.1) carrying R10C, compared to wild-type chicken ARF (% of wild type)", "setting": "[1]", "value": 77}
    ]},
    {"substance": "MDM2_210-304: human MDM2 XP_005268929 residues 210-304, corresponding to chicken MDM2_204-298", "values": [
      {"measurement": "structure in free state", "setting": "[2]", "value": "intrinsically disordered in their free states"}
    ]},
    {"substance": "ARF_(1-14)^V9D peptide (N-terminus of chicken ARF with V9D, B1 allele) (from UniProt A0A8V0X483 1-14)", "values": [
      {"measurement": "p53-luc luciferase reporter activity in U2OS cells transfected with chicken ARF (coding region, pcDNA3.1) carrying V9D, compared to wild-type chicken ARF (% of wild type)", "setting": "[1]", "value": 58}
    ]}
  ]
}
